From the RNAGym collection of RNA variant scans (doi:10.7554/elife.80360)

B1: Hairpin Ribozyme (parent)
chain: GUCCUCUUUCACGUGCGCGUGAAAGAGAGAAGUGAACCAGAGAAACACACGUUGUGGUAUAUUACCUGGUA

Variants of: B1
Experiment: self-cleavage, relative activity (ratio to wild type); higher = more cleavage; co-transcriptional

**Q.** For GUCCUCUUUCACGUGCGGGUGAAAGAGAGAAGUGAACCAGAGAAAUACACGUUGUGGUAUAUUACCUGGUA, which self-cleavage is on record?
**A.** 0.0966

**Q.** For GUCCUCUUUCACGUGCGGGUGAAAGAGAGAAGUGAACCAGAGAAACGCACGUUGUGGUAUAUUACCUGGUA, which self-cleavage is on record?
**A.** 0.198

**Q.** Which self-cleavage does the source give for GUCCUCUUUCACGUGCGGGUGAAAGAGAGAAGUGAACCAGAGAAUCACACGUUGUGGUAUAUUACCUGGUA here?
**A.** 0.228

**Q.** With GUCCUCUUUCACGUGCGGGUGAAAGAGAGAACUGAACCAGAGAAACACACGUUGUGGUAUAUUACCUGGUA as the variant, how does the self-cleavage read?
**A.** 0.0857

**Q.** With GUCCUCUUUCACGUGCGUGUGAAAGAGAGAAGUGAACCAGAGAAAAACACGUUGUGGUAUAUUACCUGGUA as the variant, how does the self-cleavage read?
**A.** 0.252

**Q.** Which self-cleavage does the source give for GUCCUCUUUCACGUGCGGGUGAAAGAGAGAAGUGAACCAGAAAAACACACGUUGUGGUAUAUUACCUGGUA here?
**A.** 0.179

**Q.** For GUCCUCUUUCACGUGCGGGUGAAAGAGAGAAGUGAACCAGAUAAACACACGUUGUGGUAUAUUACCUGGUA, which self-cleavage is on record?
**A.** 0.279

**Q.** With GUCCUCUUUCACGUGCGGGUGAAAGAGAGAAGUGAACCAGAGGAACACACGUUGUGGUAUAUUACCUGGUA as the variant, how does the self-cleavage read?
**A.** 0.0801

**Q.** With GUCCUCUUUCACGUGCGGGUGAAAGAGAGAAGUGAACCAGAGAAACACACGUUGUGGUAUAUUACCUCGUA as the variant, how does the self-cleavage read?
**A.** 0.266

**Q.** With GUCCUCUUUCACGUGCGUGUGAAACAGAGAAGUGAACCAGAGAAACACACGUUGUGGUAUAUUACCUGGUA as the variant, how does the self-cleavage read?
**A.** 0.491

**Q.** Which self-cleavage does the source give for GUCCUCUUUCACGUGCGUGUGAAAAAGAGAAGUGAACCAGAGAAACACACGUUGUGGUAUAUUACCUGGUA here?
**A.** 0.703

**Q.** For GUCCUCUUUCACGUGCGUGUGAAAGCGAGAAGUGAACCAGAGAAACACACGUUGUGGUAUAUUACCUGGUA, which self-cleavage is on record?
**A.** 0.525

**Q.** For GUCCUCUUUCACGUGCGGGUGAAAGAGAGAAGUGAACCAGAGAAACACGCGUUGUGGUAUAUUACCUGGUA, which self-cleavage is on record?
**A.** 0.344

**Q.** Which self-cleavage does the source give for GUCCUCUUUCACGUGCGUGUGAAAGAAAGAAGUGAACCAGAGAAACACACGUUGUGGUAUAUUACCUGGUA here?
**A.** 0.433

**Q.** For GUCCUCUUUCACGUGCGUGUGAAAGAGUGAAGUGAACCAGAGAAACACACGUUGUGGUAUAUUACCUGGUA, which self-cleavage is on record?
**A.** 0.606

**Q.** Which self-cleavage does the source give for GUCCUCUUUCACGUGCGUGUGAAAGAGCGAAGUGAACCAGAGAAACACACGUUGUGGUAUAUUACCUGGUA here?
**A.** 0.66

**Q.** With GUCCUCUUUCACGUGCGGGUGAAAGAGAGAAGUGAACCAGAGAAACACACGUUGUGGUAUAAUACCUGGUA as the variant, how does the self-cleavage read?
**A.** 0.2

**Q.** For GUCCUCUUUCACGUGCGGGUGAAAGAGAGAAGUGAACCAGAGAAACACACGUUGUGGUAUACUACCUGGUA, which self-cleavage is on record?
**A.** 0.2

**Q.** Which self-cleavage does the source give for GUCCUCUUUCACGUGCGUGUGAAAGAGAGAAGUGAACCAGUGAAACACACGUUGUGGUAUAUUACCUGGUA here?
**A.** 1.21

**Q.** With GUCCUCUUUCACGUGCGGGUCAAAGAGAGAAGUGAACCAGAGAAACACACGUUGUGGUAUAUUACCUGGUA as the variant, how does the self-cleavage read?
**A.** 0.706

**Q.** With GUCCUCUUUCACGUGCGGGUUAAAGAGAGAAGUGAACCAGAGAAACACACGUUGUGGUAUAUUACCUGGUA as the variant, how does the self-cleavage read?
**A.** 0.651

**Q.** For GUCCUCUUUCACGUGCGUGUGAAAGAGAGAAGUGAACCAGAGAAACACACGUUGUGGUAUAUUACUUGGUA, which self-cleavage is on record?
**A.** 0.554

**Q.** Which self-cleavage does the source give for GUCCUCUUUCACGUGCGGGUGAAAGAGAGAAGUGAACCGGAGAAACACACGUUGUGGUAUAUUACCUGGUA here?
**A.** 0.281

**Q.** For GUCCUCUUUCACGUGCGGGUGAAAGAGAGAAGUGAACCUGAGAAACACACGUUGUGGUAUAUUACCUGGUA, which self-cleavage is on record?
**A.** 0.474

**Q.** Which self-cleavage does the source give for GUCCUCUUUCACGUGCGGGUGAAAGAGAGAAGUGAACCCGAGAAACACACGUUGUGGUAUAUUACCUGGUA here?
**A.** 0.587

**Q.** With GUCCUCUUUCACGUGCGGGUGAAAGAGAGUAGUGAACCAGAGAAACACACGUUGUGGUAUAUUACCUGGUA as the variant, how does the self-cleavage read?
**A.** 0.0888

**Q.** For GUCCUCUUUCACGUGCGGGUGAAAGAGAGCAGUGAACCAGAGAAACACACGUUGUGGUAUAUUACCUGGUA, which self-cleavage is on record?
**A.** 0.275

**Q.** For GUCCUCUUUCACGUGCGGGUGAAAGAGAGAAGUGACCCAGAGAAACACACGUUGUGGUAUAUUACCUGGUA, which self-cleavage is on record?
**A.** 0.473

**Q.** Which self-cleavage does the source give for GUCCUCUUUCACGUGCGGGUGAAAGAGAGAAGUGCACCAGAGAAACACACGUUGUGGUAUAUUACCUGGUA here?
**A.** 0.797

**Q.** Which self-cleavage does the source give for GUCCUCUUUCACGUGCGUGUGAAAGAGAGAAGUGAUCCAGAGAAACACACGUUGUGGUAUAUUACCUGGUA here?
**A.** 0.634

**Q.** For GUCCUCUUUCACGUGCGUGUGAAAGAGAGAAGUGACCCAGAGAAACACACGUUGUGGUAUAUUACCUGGUA, which self-cleavage is on record?
**A.** 0.65

**Q.** Which self-cleavage does the source give for GUCCUCUUUCACGUGCGGGUGAAACAGAGAAGUGAACCAGAGAAACACACGUUGUGGUAUAUUACCUGGUA here?
**A.** 0.454

**Q.** Which self-cleavage does the source give for GUCCUCUUUCACGUGCGGGUGAAAUAGAGAAGUGAACCAGAGAAACACACGUUGUGGUAUAUUACCUGGUA here?
**A.** 0.47

**Q.** Which self-cleavage does the source give for GUCCUCUUUCACGUGCGUGUGAAAGAGAGAAGUGAAGCAGAGAAACACACGUUGUGGUAUAUUACCUGGUA here?
**A.** 0.352

**Q.** Which self-cleavage does the source give for GUCCUCUUUCACGUGCGUGUGAAAGAGAGAAGUGAAACAGAGAAACACACGUUGUGGUAUAUUACCUGGUA here?
**A.** 0.329

**Q.** With GUCCUCUUUCACGUGCGUGUGAAAGAGAGAAGUGAACCAGAGAAACACACGUUGUGGUAUAUUACCUGGUU as the variant, how does the self-cleavage read?
**A.** 0.832

**Q.** Which self-cleavage does the source give for GUCCUCUUUCACGUGCGUGUGAAAGAGAGAAGUGAACCAGAGAAACACAGGUUGUGGUAUAUUACCUGGUA here?
**A.** 0.217

**Q.** For GUCCUCUUUCACGUGCGGGUGAAAGAGAGAAGUGAACCAGAGAAACACACGUUGUGGUAUAUUACCUGGUC, which self-cleavage is on record?
**A.** 1.35
